Values of other authors, collected in publication PMC8604983, “A glucagon analogue decreases body weight in mice via signalling in the liver” (Scientific Reports, 2021).

Conditions: in rodents
Experimental: Native glucagon has a half-life of approximately 2 min in rodents. To study the effects of sustained GCGR activation, we developed a glucagon analogue (GCG104) through modification of OXM with the aim of reducing its GLP-1R activity and decreasing its rate of clearance. Select amino acid substitutions were made and a C18 lipidated tail was added (Fig. 1a).

For glucagon [Native glucagon], the half-life is given as “approximately 2 min”.
